# From patent publication US20170356905 (published 2017)
# Target: alpha-thrombin (Homo sapiens, UniProt P00734;P00734 P00734:328-363,P00734:364-622)
# Assay: competition; collected complementary strand (SEQ 3) increased with thrombin 0-100 ppm; HEPES/NaCl/KCl/MgCl2/Tween 20 buffer, room temperature
binder,measurement,value
"GGTTGGTGTGGTTGGTTTTT (ssDNA, 3'-biotin; five T added at 3' end (included in SEQ)) [thrombin aptamer TA-3bio]",binding result,binds
